Experiments:
[1] = target: hexahistidine-tagged bacterial gyrase subunit B (GyrB) of E. coli (E. coli) (UniProt P0AES6); assay: cell-based or functional assay
[2] = target: hexahistidine-tagged bacterial gyrase subunit B (GyrB) of E. coli (E. coli) (UniProt P0AES6); assay: ultrafiltration through a 50 kDa cut-off filter, without coumermycin (monomer passes the filter)
[3] = target: hexahistidine-tagged bacterial gyrase subunit B (GyrB) of E. coli (E. coli) (UniProt P0AES6); assay: ultrafiltration through a 50 kDa cut-off filter, with coumermycin (GyrB : coumermycin = 2:1; dimer is held back)

hexahistidine-tagged bacterial gyrase subunit B (GyrB) of E. coli (from UniProt P0AES6 1-220) (enzyme)
hydrogel dissolution in PBS with 1 mM novobiocin, followed by release of GyrB-polymer complexes into the buffer [1]: 11 h | stability of hydrogels with DMS-crosslinked GyrB dimers in PBS with 1 mM novobiocin [1]: 31 h | % of protein in filtrate [2]: 54% | % of protein in filtrate [3]: 2.8%

From EP2130555A1
